In publication PMC9482650, “Quantitative fragmentomics allow affinity mapping of interactomes” (Nature Communications, 2022):

T1: APBA3_1, O96018
T1 sequence (O96018 389-490, limits assumed, looked up): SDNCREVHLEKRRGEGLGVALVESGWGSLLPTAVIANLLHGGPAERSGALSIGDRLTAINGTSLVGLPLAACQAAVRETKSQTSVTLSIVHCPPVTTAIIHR

T2: CARD11, Q9BXL7
T2 sequence (Q9BXL7 662-765, limits assumed, looked up): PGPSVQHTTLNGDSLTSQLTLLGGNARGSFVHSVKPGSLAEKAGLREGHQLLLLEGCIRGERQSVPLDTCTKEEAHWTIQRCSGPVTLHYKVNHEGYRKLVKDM

T3: DFNB31_1, Q9P202
T3 sequence (Q9P202 135-233, limits assumed, looked up): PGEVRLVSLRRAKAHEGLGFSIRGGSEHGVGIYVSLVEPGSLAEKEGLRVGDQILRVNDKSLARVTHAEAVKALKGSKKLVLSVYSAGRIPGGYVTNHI

T4: GRIP1_3, Q9Y3R0
T4 sequence (Q9Y3R0 247-346, limits assumed, looked up): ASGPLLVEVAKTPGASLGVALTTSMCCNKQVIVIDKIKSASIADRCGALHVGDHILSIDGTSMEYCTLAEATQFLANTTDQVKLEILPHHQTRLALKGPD

T5: HTRA4, P83105
T5 sequence (P83105 378-476, limits assumed, looked up): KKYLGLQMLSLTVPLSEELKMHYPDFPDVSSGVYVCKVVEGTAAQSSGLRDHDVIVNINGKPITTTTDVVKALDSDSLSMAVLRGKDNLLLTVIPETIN

T6: LIN7C, Q9NUP9
T6 sequence (Q9NUP9 88-185, limits assumed, looked up): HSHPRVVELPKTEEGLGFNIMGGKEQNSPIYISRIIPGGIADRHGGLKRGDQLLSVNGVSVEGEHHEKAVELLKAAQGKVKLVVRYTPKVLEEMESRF

T7: NHERF3_3, Q5T2W1
T7 sequence (Q5T2W1 238-333, limits assumed, looked up): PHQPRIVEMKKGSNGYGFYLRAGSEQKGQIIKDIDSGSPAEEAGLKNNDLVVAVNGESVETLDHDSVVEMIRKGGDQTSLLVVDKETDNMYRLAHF

T8: RAPGEF6, Q8TEU7
T8 sequence (Q8TEU7 525-625, limits assumed, looked up): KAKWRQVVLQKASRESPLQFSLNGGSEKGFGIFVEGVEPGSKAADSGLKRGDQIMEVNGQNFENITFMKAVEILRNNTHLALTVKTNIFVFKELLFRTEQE

T9: SHANK1, Q9Y566
T9 sequence (Q9Y566 658-767, limits assumed, looked up): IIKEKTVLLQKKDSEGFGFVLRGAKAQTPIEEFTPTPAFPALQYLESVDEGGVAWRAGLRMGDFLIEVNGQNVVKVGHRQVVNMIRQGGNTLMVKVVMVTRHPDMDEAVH


Legend:
Assay in all cases: holdup assay
Parameters in all cases: key: below the threshold = too weak to quantify, mostly under pKd 3.1 to 4
Conditions in all cases: plain residues with an end cap or a label only (N-terminal biotin on a linker: ado-ado)
APBA3_1, O96018 = molecular target: T1, APBA3_1, O96018
CARD11, Q9BXL7 = molecular target: T2, CARD11, Q9BXL7
DFNB31_1, Q9P202 = molecular target: T3, DFNB31_1, Q9P202
DLG2_2, Q15700 = molecular target: DLG2_2, Q15700
Chain of DLG2_2, Q15700 (Q15700 189-283): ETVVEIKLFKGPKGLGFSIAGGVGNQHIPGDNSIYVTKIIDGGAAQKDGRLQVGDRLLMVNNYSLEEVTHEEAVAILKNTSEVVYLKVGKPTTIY

DLG4_1, P78352 = molecular target: DLG4_1, P78352
Chain of DLG4_1, P78352 (P78352 62-152): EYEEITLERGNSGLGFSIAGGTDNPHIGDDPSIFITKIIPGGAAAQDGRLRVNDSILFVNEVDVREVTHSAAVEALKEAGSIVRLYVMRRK

FRMPD2_2, Q68DX3 = molecular target: FRMPD2_2, Q68DX3
Chain of FRMPD2_2, Q68DX3 (Q68DX3 944-1038): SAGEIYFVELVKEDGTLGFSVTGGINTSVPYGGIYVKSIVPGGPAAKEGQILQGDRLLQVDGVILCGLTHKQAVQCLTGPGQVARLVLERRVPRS

GRASP, Q7Z6J2 = molecular target: GRASP, Q7Z6J2
Chain of GRASP, Q7Z6J2 (Q7Z6J2 96-193): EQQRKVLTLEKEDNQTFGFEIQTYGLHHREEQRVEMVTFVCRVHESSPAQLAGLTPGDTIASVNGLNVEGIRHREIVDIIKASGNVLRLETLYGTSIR

GRID2IP_1, A4D2P6 = molecular target: GRID2IP_1, A4D2P6
Chain of GRID2IP_1, A4D2P6 (A4D2P6 1-87): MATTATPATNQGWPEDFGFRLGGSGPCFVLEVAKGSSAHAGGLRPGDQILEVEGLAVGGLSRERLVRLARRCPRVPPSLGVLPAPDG

GRIP1_3, Q9Y3R0 = molecular target: T4, GRIP1_3, Q9Y3R0
GRIP2_4, Q9C0E4 = molecular target: GRIP2_4, Q9C0E4
Chain of GRIP2_4, Q9C0E4 (Q9C0E4 446-548): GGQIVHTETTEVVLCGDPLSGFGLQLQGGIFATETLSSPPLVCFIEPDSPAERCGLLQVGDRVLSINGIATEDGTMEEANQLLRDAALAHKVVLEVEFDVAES

GRIP2_7, Q9C0E4 = molecular target: GRIP2_7, Q9C0E4
Chain of GRIP2_7, Q9C0E4 (Q9C0E4 934-1023): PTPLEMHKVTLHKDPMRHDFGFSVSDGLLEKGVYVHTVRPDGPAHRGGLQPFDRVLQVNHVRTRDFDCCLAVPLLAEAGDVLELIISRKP

HTRA1, Q92743 = molecular target: HTRA1, Q92743
Chain of HTRA1, Q92743 (Q92743 360-477): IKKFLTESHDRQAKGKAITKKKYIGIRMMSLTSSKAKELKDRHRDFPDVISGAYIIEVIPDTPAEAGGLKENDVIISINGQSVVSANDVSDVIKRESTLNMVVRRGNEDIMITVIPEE

HTRA4, P83105 = molecular target: T5, HTRA4, P83105
Inadl_2, Q8NI35 = molecular target: Inadl_2, Q8NI35
Chain of Inadl_2, Q8NI35 (Q8NI35 238-335): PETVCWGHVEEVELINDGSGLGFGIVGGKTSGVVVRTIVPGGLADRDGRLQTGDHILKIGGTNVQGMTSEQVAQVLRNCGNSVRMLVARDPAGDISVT

Inadl_6, Q8NI35 = molecular target: Inadl_6, Q8NI35
Chain of Inadl_6, Q8NI35 (Q8NI35 1058-1167): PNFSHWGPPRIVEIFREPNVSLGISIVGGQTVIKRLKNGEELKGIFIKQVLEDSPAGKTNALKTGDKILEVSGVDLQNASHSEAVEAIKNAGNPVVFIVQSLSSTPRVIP

LDB3, O75112 = molecular target: LDB3, O75112
Chain of LDB3, O75112 (O75112 1-94): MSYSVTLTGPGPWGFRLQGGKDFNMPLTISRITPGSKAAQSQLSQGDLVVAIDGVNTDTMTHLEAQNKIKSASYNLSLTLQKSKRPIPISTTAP

LIMK2, P53671 = molecular target: LIMK2, P53671
Chain of LIMK2, P53671 (P53671 143-248): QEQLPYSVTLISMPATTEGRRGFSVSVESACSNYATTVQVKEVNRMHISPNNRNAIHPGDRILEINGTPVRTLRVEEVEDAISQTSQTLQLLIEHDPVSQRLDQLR

LIN7C, Q9NUP9 = molecular target: T6, LIN7C, Q9NUP9
MAGI2_2, Q86UL8 = molecular target: MAGI2_2, Q86UL8
Chain of MAGI2_2, Q86UL8 (Q86UL8 410-522): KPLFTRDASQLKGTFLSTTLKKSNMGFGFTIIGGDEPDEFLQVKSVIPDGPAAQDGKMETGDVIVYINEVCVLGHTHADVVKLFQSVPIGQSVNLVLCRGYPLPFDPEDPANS

MAGI2_5, Q86UL8 = molecular target: MAGI2_5, Q86UL8
Chain of MAGI2_5, Q86UL8 (Q86UL8 915-1017): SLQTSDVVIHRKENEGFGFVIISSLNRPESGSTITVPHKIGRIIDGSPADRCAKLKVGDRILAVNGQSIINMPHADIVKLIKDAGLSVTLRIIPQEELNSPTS

MAGI3_2, Q5TCQ9 = molecular target: MAGI3_2, Q5TCQ9
Chain of MAGI3_2, Q5TCQ9 (Q5TCQ9 398-503): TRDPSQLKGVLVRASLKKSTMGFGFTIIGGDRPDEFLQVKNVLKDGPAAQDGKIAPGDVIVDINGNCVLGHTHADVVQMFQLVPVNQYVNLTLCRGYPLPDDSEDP

NHERF2_2, Q15599 = molecular target: NHERF2_2, Q15599
Chain of NHERF2_2, Q15599 (Q15599 142-238): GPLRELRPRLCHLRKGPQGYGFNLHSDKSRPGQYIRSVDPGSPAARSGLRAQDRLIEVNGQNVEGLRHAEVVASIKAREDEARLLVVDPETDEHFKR

NHERF3_3, Q5T2W1 = molecular target: T7, NHERF3_3, Q5T2W1
NHERF4_4, Q86UT5 = molecular target: NHERF4_4, Q86UT5
Chain of NHERF4_4, Q86UT5 (Q86UT5 464-550): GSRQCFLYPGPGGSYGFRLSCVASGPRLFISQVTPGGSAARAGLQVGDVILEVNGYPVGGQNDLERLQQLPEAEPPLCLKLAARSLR

PARD3_3, Q8TEW0 = molecular target: PARD3_3, Q8TEW0
Chain of PARD3_3, Q8TEW0 (Q8TEW0 582-685): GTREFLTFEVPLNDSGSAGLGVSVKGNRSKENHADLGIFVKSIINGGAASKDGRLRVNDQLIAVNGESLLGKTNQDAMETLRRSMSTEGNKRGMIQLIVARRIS

RAPGEF6, Q8TEU7 = molecular target: T8, RAPGEF6, Q8TEU7
SHANK1, Q9Y566 = molecular target: T9, SHANK1, Q9Y566
SNX27, Q96L92 = molecular target: SNX27, Q96L92

Binder | pKd (APBA3_1, O96018) | pKd (CARD11, Q9BXL7) | pKd (DFNB31_1, Q9P202) | pKd (DLG2_2, Q15700) | pKd (DLG4_1, P78352) | pKd (FRMPD2_2, Q68DX3) | pKd (GRASP, Q7Z6J2) | pKd (GRID2IP_1, A4D2P6) | pKd (GRIP1_3, Q9Y3R0) | pKd (GRIP2_4, Q9C0E4) | pKd (GRIP2_7, Q9C0E4) | pKd (HTRA1, Q92743) | pKd (HTRA4, P83105) | pKd (Inadl_2, Q8NI35) | pKd (Inadl_6, Q8NI35) | pKd (LDB3, O75112) | pKd (LIMK2, P53671) | pKd (LIN7C, Q9NUP9) | pKd (MAGI2_2, Q86UL8) | pKd (MAGI2_5, Q86UL8) | also measured
QLSFNTDTLC [ABCA2, Q9BZC7] | below the threshold | below the threshold | below the threshold | below the threshold | 3.7 | below the threshold | below the threshold | below the threshold | below the threshold | below the threshold | below the threshold | 4.11 | below the threshold | below the threshold | below the threshold | below the threshold | below the threshold | below the threshold | below the threshold | 3.73 | pKd (MAGI3_2, Q5TCQ9): below the threshold; pKd (NHERF2_2, Q15599): 3.59; pKd (NHERF3_3, Q5T2W1): below the threshold; pKd (NHERF4_4, Q86UT5): below the threshold; pKd (PARD3_3, Q8TEW0): below the threshold; pKd (RAPGEF6, Q8TEU7): below the threshold; pKd (SHANK1, Q9Y566): below the threshold; pKd (SNX27, Q96L92): 4.17
EKCGKEFSEF [PRKACA, P17612] | below the threshold | below the threshold | below the threshold | below the threshold | below the threshold | below the threshold | 4.16 | below the threshold | below the threshold | below the threshold | below the threshold | below the threshold | below the threshold | below the threshold | below the threshold | below the threshold | below the threshold | below the threshold | below the threshold | 3.8 | pKd (MAGI3_2, Q5TCQ9): below the threshold; pKd (NHERF2_2, Q15599): 4.18; pKd (NHERF3_3, Q5T2W1): below the threshold; pKd (NHERF4_4, Q86UT5): below the threshold; pKd (PARD3_3, Q8TEW0): below the threshold; pKd (RAPGEF6, Q8TEU7): below the threshold; pKd (SHANK1, Q9Y566): below the threshold; pKd (SNX27, Q96L92): below the threshold
QKAPTKEFYA [SDC2, P34741] | below the threshold | below the threshold | below the threshold | below the threshold | below the threshold | 3.61 | below the threshold | below the threshold | below the threshold | below the threshold | below the threshold | 4.47 | below the threshold | below the threshold | below the threshold | below the threshold | below the threshold | below the threshold | below the threshold | below the threshold | pKd (MAGI3_2, Q5TCQ9): below the threshold; pKd (NHERF2_2, Q15599): below the threshold; pKd (NHERF3_3, Q5T2W1): below the threshold; pKd (NHERF4_4, Q86UT5): below the threshold; pKd (PARD3_3, Q8TEW0): below the threshold; pKd (RAPGEF6, Q8TEU7): 3.54; pKd (SHANK1, Q9Y566): 3.53; pKd (SNX27, Q96L92): below the threshold
PYPTADHMLA [JUP, P14923] | below the threshold | below the threshold | below the threshold | below the threshold | below the threshold | below the threshold | below the threshold | below the threshold | below the threshold | below the threshold | below the threshold | 4.32 | below the threshold | below the threshold | below the threshold | below the threshold | below the threshold | 3.87 | below the threshold | below the threshold | pKd (MAGI3_2, Q5TCQ9): 3.73; pKd (NHERF2_2, Q15599): below the threshold; pKd (NHERF3_3, Q5T2W1): below the threshold; pKd (NHERF4_4, Q86UT5): below the threshold; pKd (PARD3_3, Q8TEW0): below the threshold; pKd (RAPGEF6, Q8TEU7): below the threshold; pKd (SHANK1, Q9Y566): below the threshold; pKd (SNX27, Q96L92): below the threshold
TGLWKHETTV [ADGRA3, Q8IWK6] | below the threshold | below the threshold | 3.9 | 5.4 | 5.21 | 3.76 | 3.55 | below the threshold | below the threshold | below the threshold | below the threshold | 4.32 | 4.15 | below the threshold | below the threshold | below the threshold | below the threshold | 4.6 | 5.22 | 4.41 | pKd (MAGI3_2, Q5TCQ9): 5.48; pKd (NHERF2_2, Q15599): below the threshold; pKd (NHERF3_3, Q5T2W1): below the threshold; pKd (NHERF4_4, Q86UT5): 3.87; pKd (PARD3_3, Q8TEW0): 3.54; pKd (RAPGEF6, Q8TEU7): below the threshold; pKd (SHANK1, Q9Y566): below the threshold; pKd (SNX27, Q96L92): 5.41
